Test results reported in US20020086014A1 (Bristol-Myers Squibb, published 2002).
One block for each molecule: values may come before it.

Experiments:
[1] = target: T1, purified recombinant human CTLA-4 (human, UniProt P16410 36-161, limits assumed); assay: competitive ELISA on CTLA-4: unlabelled IgG 0-6666 ng/ml against biotin-labelled 3A4
T1 construct: also called purified CTLA-4; purified recombinant CTLA-4
T1 sequence (looked up): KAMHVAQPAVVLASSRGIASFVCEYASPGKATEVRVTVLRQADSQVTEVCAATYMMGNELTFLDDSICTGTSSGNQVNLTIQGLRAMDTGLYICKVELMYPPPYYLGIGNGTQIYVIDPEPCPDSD

[2] = target: T1, purified recombinant human CTLA-4; assay: competitive ELISA on CTLA-4: unlabelled IgG 0-6666 ng/ml against biotin-labelled BNI 3.1
macaque CTLA-4 (macaque) = assay: flow cytometry (FACScan), cell line expressing recombinant CTLA-4, FITC-anti human IgG
[3] = target: human CTLA-4 expressed on cells (human) (UniProt P16410); assay: as above
murine CTLA-4 (murine) = murine CTLA-4 (murine) (UniProt P09793); assay: as above
Chain of murine CTLA-4 (murine) (P09793 36-223): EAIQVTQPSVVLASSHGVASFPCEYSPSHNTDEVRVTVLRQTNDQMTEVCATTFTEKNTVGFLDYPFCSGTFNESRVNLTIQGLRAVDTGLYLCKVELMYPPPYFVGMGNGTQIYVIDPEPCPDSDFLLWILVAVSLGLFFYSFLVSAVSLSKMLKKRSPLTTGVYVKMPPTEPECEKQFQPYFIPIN

IC50 (read off the curve) [1]: 0.09 mg/L
IC50 (read off the curve) [2]: 0.5 mg/L
Molecule: BNI3 (antibody)

MFI (macaque CTLA-4 (macaque)): 4 MFI
MFI [3]: 3 MFI
MFI (murine CTLA-4 (murine)): 5 MFI
Molecule: isotype control (Table 5) (antibody)

IC50 (read off the curve) [1]: ~0.2 mg/L
B1: 1E2 (antibody, V domains shown)
VH: QVQLVESGGGVVQPGRSLRLSCAASGFTFSSYGMHWVRQAPGKGLEWVAVIWYDGSNKYYADSVKGRFTISRDNSKNTLYLQMNSLRAEDTAVFYCARAPNYIGAFDVWGQGTMVTVSS
VL: DIQMTQSPSSLSASVGDRVTITCRASQGISSWLAWYQQKPEKAPKSLIYAASSLQSGVPSRFSGSGSGTDFTLTISSLQPEDFATYYCQQYNSYPPTFGQGTKVEIK
notes: Human anti-CTLA-4 monoclonal antibody
